Values quoted from earlier work in publication PMC4760235.

Target: CD161 (Homo sapiens) (UniProt Q12918)
UniProt Q12918, sequence (Q12918 whole entry): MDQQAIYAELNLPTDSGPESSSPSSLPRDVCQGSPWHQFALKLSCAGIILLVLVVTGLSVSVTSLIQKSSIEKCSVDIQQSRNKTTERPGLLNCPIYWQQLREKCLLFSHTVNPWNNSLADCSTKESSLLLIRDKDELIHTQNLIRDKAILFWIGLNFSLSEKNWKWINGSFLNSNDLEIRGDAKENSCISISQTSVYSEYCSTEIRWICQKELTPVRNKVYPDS

Kd: 48 µM
Substance: LLT1 (from UniProt Q9UHP7)
